Assay results: US20180362645A1 (Amgen, published 2018)

T1: human pituitary adenylate cyclase-activating polypeptide type I receptor (human, UniProt P41586 21-468)
T1 construct: whole, on cells; On SH-SY5Y or recombinant CHO cells (cAMP assay), as membranes of hPAC-1 AequoScreen CHO cells (radioligand assay) and on CHOK1/huPac1 whole cells (KinExA); also called human PAC1; hPAC1
T1 sequence (looked up): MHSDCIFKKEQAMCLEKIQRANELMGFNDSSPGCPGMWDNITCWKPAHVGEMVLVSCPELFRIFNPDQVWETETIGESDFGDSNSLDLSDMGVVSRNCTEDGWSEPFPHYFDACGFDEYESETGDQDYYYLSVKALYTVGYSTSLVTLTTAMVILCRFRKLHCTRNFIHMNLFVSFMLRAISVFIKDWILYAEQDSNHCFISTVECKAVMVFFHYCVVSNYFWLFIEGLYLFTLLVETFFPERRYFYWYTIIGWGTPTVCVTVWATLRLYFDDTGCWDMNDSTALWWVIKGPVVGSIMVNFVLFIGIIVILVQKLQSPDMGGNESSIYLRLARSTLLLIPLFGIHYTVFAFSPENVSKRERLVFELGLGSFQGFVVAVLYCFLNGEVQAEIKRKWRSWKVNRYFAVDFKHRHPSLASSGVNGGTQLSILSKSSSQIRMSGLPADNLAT

T2: human VPAC2 (human, UniProt P41587 24-438)
T2 sequence (looked up): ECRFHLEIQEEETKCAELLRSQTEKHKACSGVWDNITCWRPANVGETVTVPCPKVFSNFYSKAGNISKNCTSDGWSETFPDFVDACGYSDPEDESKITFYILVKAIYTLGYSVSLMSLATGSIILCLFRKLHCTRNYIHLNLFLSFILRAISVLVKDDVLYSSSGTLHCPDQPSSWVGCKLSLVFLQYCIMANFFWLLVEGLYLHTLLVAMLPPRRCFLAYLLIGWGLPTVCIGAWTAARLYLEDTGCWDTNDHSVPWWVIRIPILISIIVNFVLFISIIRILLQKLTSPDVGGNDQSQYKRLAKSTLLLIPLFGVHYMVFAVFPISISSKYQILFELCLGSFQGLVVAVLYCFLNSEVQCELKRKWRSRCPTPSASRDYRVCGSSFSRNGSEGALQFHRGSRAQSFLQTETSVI

T3: rat PAC1 (rat, UniProt P32215 20-523)
T3 sequence (looked up): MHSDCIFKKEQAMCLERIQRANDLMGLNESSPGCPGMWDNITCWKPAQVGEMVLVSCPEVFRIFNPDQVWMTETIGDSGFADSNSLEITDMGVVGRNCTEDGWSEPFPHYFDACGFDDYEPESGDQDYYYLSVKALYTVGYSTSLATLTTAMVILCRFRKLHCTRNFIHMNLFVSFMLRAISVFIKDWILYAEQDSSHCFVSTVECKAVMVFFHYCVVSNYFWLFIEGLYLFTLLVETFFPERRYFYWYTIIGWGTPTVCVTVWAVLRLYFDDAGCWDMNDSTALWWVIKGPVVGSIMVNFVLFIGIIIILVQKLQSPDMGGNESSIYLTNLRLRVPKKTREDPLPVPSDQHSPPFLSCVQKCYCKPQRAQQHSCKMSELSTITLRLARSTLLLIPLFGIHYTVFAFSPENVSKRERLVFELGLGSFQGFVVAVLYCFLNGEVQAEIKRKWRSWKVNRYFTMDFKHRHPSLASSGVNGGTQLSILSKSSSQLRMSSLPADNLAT

T4: human VPAC1 (human, UniProt P32241 31-457)
T4 sequence (looked up): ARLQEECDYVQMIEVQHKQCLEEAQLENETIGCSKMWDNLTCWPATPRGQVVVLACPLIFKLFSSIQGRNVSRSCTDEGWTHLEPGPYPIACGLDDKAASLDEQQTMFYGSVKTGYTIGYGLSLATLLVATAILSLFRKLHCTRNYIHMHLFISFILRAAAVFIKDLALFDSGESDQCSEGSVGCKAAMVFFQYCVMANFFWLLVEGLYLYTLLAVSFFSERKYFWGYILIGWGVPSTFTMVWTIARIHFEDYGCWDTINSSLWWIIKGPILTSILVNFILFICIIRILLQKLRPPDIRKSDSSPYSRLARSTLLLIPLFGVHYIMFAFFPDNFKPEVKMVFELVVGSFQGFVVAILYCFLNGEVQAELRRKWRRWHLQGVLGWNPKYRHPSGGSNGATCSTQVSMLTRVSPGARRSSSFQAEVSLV

B1: 29B (antibody, human IgG1, kappa, N297G)
heavy: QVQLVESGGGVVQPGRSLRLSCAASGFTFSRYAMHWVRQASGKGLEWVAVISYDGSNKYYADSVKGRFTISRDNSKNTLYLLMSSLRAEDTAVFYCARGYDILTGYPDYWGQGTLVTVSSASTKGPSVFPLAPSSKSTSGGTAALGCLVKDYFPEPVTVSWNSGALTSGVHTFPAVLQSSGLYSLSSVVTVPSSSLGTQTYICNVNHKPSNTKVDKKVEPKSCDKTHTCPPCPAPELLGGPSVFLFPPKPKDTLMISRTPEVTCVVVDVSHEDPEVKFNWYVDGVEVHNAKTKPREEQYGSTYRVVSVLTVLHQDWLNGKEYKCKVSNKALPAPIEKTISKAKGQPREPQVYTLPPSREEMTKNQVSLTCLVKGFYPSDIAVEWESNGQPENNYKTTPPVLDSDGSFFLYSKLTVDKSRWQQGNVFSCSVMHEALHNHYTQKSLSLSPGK
light: DIQLTQSPSFLSASVGDRVTITCRASQSIGRSLHWYQQKPGKAPKLLFKYASQSLSGVPSRFSGSGSGTEFTLTISSLQPEDFATYYCHQSSRLPFTFGPGTKVDIKRTVAAPSVFIFPPSDEQLKSGTASVVCLLNNFYPREAKVQWKVDNALQSGNSQESVTEQDSKDSTYSLSSTLTLSKADYEKHKVYACEVTHQGLSSPVTKSFNRGEC
notes: "B" suffix: aglycosylated IgG1 variant (N297G); also called LC-11 and HC-40

Key:
[1] = biological target: T1, human pituitary adenylate …; experiment: radioligand competition, hPAC1 CHO membranes; competitor 125I-01B
Description: (§1) The plates were incubated at room temperature for 2 hours with shaking at 60 rpm, and then the contents of each well were filtered over 0.5% polyethyleneimine (PEI)-treated (for at least two hours) GF/C 96-well filter plates. The GF/C filter plates were washed five times with ice-cold 50 mM Tris, pH 7.5 and dried in an oven at 55° C. for 1 hour. The bottoms of the GF/C plates were then sealed. 40 μl Microscint™ 20 was added to each well, the tops of the GF/C plates were sealed with TopSeal™-A (a press-on adhesive sealing film), and the GF/C plates were counted with TopCount NXT (Packard). The data were analyzed using Prizm (GraphPad Software Inc.)

[2] = biological target: T1, human pituitary adenylate …; experiment: radioligand competition, hPAC1 CHO membranes; competitor 125I-39B
Description: as §1

[3] = biological target: T1, human pituitary adenylate …; experiment: radioligand competition, hPAC1 CHO membranes; competitor 125I-14B
Description: as §1

[4] = biological target: T1, human pituitary adenylate …; experiment: radioligand competition, hPAC1 CHO membranes; competitor 125I-26B
Description: as §1

[5] = biological target: T1, human pituitary adenylate …; experiment: radioligand competition, hPAC1 CHO membranes; competitor 125I-29B
Description: as §1

[6] = biological target: T1, human pituitary adenylate …; experiment: cell-based or functional assay
human VPAC2 = biological target: T2, human VPAC2; experiment: cell-based or functional assay
cyno PAC1 = cyno PAC1 (cynomolgus); experiment: cell-based or functional assay
rat PAC1 = biological target: T3, rat PAC1; experiment: cell-based or functional assay
human VPAC1 = biological target: T4, human VPAC1; experiment: cell-based or functional assay
[7] = biological target: T1, human pituitary adenylate …; experiment: KinExA, CHOK1/huPac1 whole cells
Description: Binding of anti-Pac1 antibody with CHOK1/huPac1 cells were tested on KinExA. […] Samples containing anti-Pac1 antibody and whole cells were incubated with rotation at room temperature for 4 hours before 5-minute 220-g centrifugation at 4° C. to separate the whole cells and anti-Pac1 antibody-cell complexes from unbound anti-Pac1 antibody. The supernatants containing free anti-Pac1 antibody were filtered through 0.22 μm filter before loading to the goat-anti-huFc-coated beads on KinExA. […] The binding signal is proportional to the concentration of free anti-Pac1 antibody in solution at each cell density. Equilibrium dissociation constant (KD) was estimated by n-curve analysis in KinExA™ Pro software (Sapidyne Instruments, Inc., Boise, Id.).

[8] = biological target: T1, human pituitary adenylate …; experiment: radioligand competition, hPAC1 CHO membranes; competitor 125I-39A
Description: as §1

[9] = biological target: T1, human pituitary adenylate …; experiment: radioligand competition, hPAC1 CHO membranes; competitor 125I-28A
Description: as §1

[10] = biological target: T1, human pituitary adenylate …; experiment: radioligand competition, hPAC1 CHO membranes; competitor 125I-29A
Description: as §1

[11] = biological target: T1, human pituitary adenylate …; experiment: radioligand competition, hPAC1 CHO membranes; competitor 125I-14A
Description: as §1

[12] = biological target: T1, human pituitary adenylate …; experiment: radioligand competition, hPAC1 CHO membranes; competitor 125I-01B; 125I-01B as tracer
Description: as §1

[13] = biological target: T1, human pituitary adenylate …; experiment: radioligand competition, hPAC1 CHO membranes; competitor 125I-26A
Description: as §1

| Binder | Ki [1] [nM] | Ki [2] [nM] | Ki [3] [nM] | Ki [4] [nM] | Ki [5] [nM] | hPAC1 IC50 (cAMP assay) [6] [nM] | hVPAC2 IC50 (cAMP assay) (human VPAC2) [nM] | cyno PAC1 IC50 (cAMP assay) (cyno PAC1) [nM] | rat PAC1 IC50 (cAMP assay) (rat PAC1) [nM] | hVPAC1 IC50 (cAMP assay) (human VPAC1) [nM] | Kd [7] [nM] | Ki [8] [nM] | Ki [9] [nM] | Ki [10] [nM] | Ki [11] [nM] | Ki [12] [nM] | Ki [13] [nM] |
| --- | --- | --- | --- | --- | --- | --- | --- | --- | --- | --- | --- | --- | --- | --- | --- | --- | --- |
| B1 | 0.14 | 0.05 | 0.08 | 0.07 | 0.08 | 0.9 | > 10000 | 0.5 | 50.7 | > 10000 | 0.015 |  |  |  |  |  |  |
| FTDSYSRYRKQMAVKKYLAAVLGKRYKQRVKNK (peptide, UniProt P18509 137-169, looked up, domain: PACAP 6-38) [PACAP 6-38] |  | 4.91 | 7.74 | 6.26 | 2.39 |  |  |  |  |  |  | 2.78 | 2.06 | 4.05 | 4.08 | 4.98 | 2.51 |
